Test [1] has as its target T1, cynomolgus monkey (Macaca fascicularis) TfR1 (cynomolgus monkey (Macaca fascicularis), UniProt Q5RDH6 89-760 (Pongo abelii entry), limits assumed).
T1 construct: also called cTfR1; cyTfR1
T1 chain: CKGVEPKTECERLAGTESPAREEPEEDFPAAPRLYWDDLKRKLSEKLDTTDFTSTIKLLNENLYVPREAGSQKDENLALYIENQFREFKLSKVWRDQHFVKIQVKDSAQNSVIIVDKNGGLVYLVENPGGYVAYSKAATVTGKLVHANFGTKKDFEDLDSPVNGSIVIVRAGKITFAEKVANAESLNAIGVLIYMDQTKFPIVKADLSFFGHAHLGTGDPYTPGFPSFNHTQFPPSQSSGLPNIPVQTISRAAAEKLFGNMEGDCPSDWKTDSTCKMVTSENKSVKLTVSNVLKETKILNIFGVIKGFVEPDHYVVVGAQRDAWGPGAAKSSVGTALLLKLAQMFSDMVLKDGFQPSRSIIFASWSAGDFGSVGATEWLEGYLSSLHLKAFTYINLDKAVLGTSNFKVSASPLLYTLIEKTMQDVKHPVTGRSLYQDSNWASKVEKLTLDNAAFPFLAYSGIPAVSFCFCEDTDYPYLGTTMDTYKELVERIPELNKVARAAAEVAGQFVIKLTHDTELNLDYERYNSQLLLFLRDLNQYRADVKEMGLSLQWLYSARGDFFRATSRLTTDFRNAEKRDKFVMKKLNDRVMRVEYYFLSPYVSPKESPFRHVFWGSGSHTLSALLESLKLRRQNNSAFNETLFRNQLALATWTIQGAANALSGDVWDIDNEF
The experiment in a line: ELISA, coated recombinant TfR1, unconjugated Fab. The protocol: (§1) To measure binding of humanized anti-TfR antibodies to TfR1, ELISAs were conducted. High binding, black, flat bottom, 96 well plates (Corning# 3925) were first coated with 100 µL/well of recombinant huTfR1 at 1 µg/mL in PBS and incubated at 4° C. overnight. Wells were emptied and residual liquid was removed. Blocking was conducted by adding 200 µL of 1%BSA (w/w) in PBS to each well. Blocking was allowed to proceed for 2 hours at room temperature on a shaker at 300 rpm. After blocking, liquid was removed and wells were washed three times with 300 µL of TBST. Anti-TfR1 antibodies were then added in 0.5% BSA/TBST in triplicate in an 8 point serial dilution (dilution range 5 µg/mL- 5 ng/mL). A positive control and isotype controls were also included on the ELISA plate. The plate was incubated at room temperature on an orbital shaker for 60 minutes at 300 rpm, and the plate was washed three times with 300 µL of TBST. Anti-(H+L)IgG-A488 (1:500) (Invitrogen #A11013) was diluted in 0.5% BSA in TBST, and 100 µL was added to each well. The plate was then allowed to incubate at room temperature for 60 minutes at 300 rpm on orbital shaker. The liquid was removed and the plate was washed four times with 300 µL of TBST. Absorbance was then measured at 495 nm excitation and […] (with a 15 nm bandwidth) on a plate reader. Data was recorded and analyzed for EC₅₀. […] ELISA measurements were conducted using cynomolgus monkey (Macaca fascicularis) TfR1 (cTfR1) according to the same protocol described above for hTfR1, and results are shown in FIGS. 9B, 9D, and 9F.

Test [2] deals with T1, cynomolgus monkey (Macaca fascicularis) …. Put plainly: ELISA, d0. The protocol: as §1
Test [3] shares this target. Put plainly: ELISA, d9 (after 9 days at 40 C).
Test [4] shares this target. Put plainly: ELISA, coated recombinant TfR1, Fab-ASO300 conjugate.
Test [5] shares this target. The experiment in a line: ELISA, Fab-ASO300 conjugate.

The text below walks through data of patent US20230285582A1 (published 2023).

B1: humanized anti-TfR Fab 5H12 VH5 (C33Y)/Vk4 (Fab, V domains shown)
VH: QVQLVQSGAEVKKPGASVKVSCKASGYSFTDYYINWVRQAPGQGLEWMGWIYPGSGNTRYSERFKGRVTITRDTSASTAYMELSSLRSEDTAVYYCAREDYYPYHGMDYWGQGTLVTVSS
VL: DIVMTQSPDSLAVSLGERATINCRASESVDGYDNSFMHWYQQKPGQPPKLLIFRASNLESGVPDRFSGSGSGTDFTLTISSLQAEDVAVYYCQQSSEDPWTFGQGTKLEIKR
B1: the concentration giving a half-maximal response (EC50) in test [1] was determined as 3.3 nM; in test [2], 3.3 nM; in test [3] it was 0.26 nM.

B2: humanized anti-TfR Fab 5H12 VH5 (C33D)/Vk4 (Fab, V domains shown)
VH: QVQLVQSGAEVKKPGASVKVSCKASGYSFTDYDINWVRQAPGQGLEWMGWIYPGSGNTRYSERFKGRVTITRDTSASTAYMELSSLRSEDTAVYYCAREDYYPYHGMDYWGQGTLVTVSS
VL: DIVMTQSPDSLAVSLGERATINCRASESVDGYDNSFMHWYQQKPGQPPKLLIFRASNLESGVPDRFSGSGSGTDFTLTISSLQAEDVAVYYCQQSSEDPWTFGQGTKLEIKR
Turning to B2, the half-maximal effective concentration (EC50) in test [1] was 3.5 nM; in test [2] it was 3.5 nM; in test [3] it was 0.63 nM.

B3: humanized anti-TfR Fab 5H12 VH5 (C33Y)/Vk3 (Fab, V domains shown)
VH: QVQLVQSGAEVKKPGASVKVSCKASGYSFTDYYINWVRQAPGQGLEWMGWIYPGSGNTRYSERFKGRVTITRDTSASTAYMELSSLRSEDTAVYYCAREDYYPYHGMDYWGQGTLVTVSS
VL: DIVLTQSPDSLAVSLGERATINCRASESVDGYDNSFMHWYQQKPGQPPKLLIFRASNLESGVPDRFSGSGSRTDFTLTISSLQAEDVAVYYCQQSSEDPWTFGQGTKLEIKR
In the case of B3, the half-maximal effective concentration (EC50) in test [1] is 2.1 nM; in test [2] it was 2.1 nM; in test [3], 0.69 nM.

B4: conjugate of humanized anti-TfR Fab 5H12 VH5 (C33Y)/Vk3 with DMPK-targeting oligonucleotide ASO300 (Fab, V domains shown)
VH: QVQLVQSGAEVKKPGASVKVSCKASGYSFTDYYINWVRQAPGQGLEWMGWIYPGSGNTRYSERFKGRVTITRDTSASTAYMELSSLRSEDTAVYYCAREDYYPYHGMDYWGQGTLVTVSS
VL: DIVLTQSPDSLAVSLGERATINCRASESVDGYDNSFMHWYQQKPGQPPKLLIFRASNLESGVPDRFSGSGSRTDFTLTISSLQAEDVAVYYCQQSSEDPWTFGQGTKLEIKR
modifications: ASO300 oligonucleotide attached through a cleavable Val-Cit linker (Formula (C)); residue and chain not stated
notes: also called 5H12 (VH5-C33Y/Vk3) conjugate
For the molecule B4, the EC50 in test [4] came to 2.3 nM.

B5: humanized anti-TfR Fab 3M12 VH3/Vk2 (Fab, V domains shown)
VH: QVQLQESGPGLVKPSQTLSLTCSVTGYSITSGYYWNWIRQPPGKGLEWMGYITFDGANNYNPSLKNRVSISRDTSKNQFSLKLSSVTAEDTATYYCTRSSYDYDVLDYWGQGTTVTVSS
VL: DIQMTQSPSSLSASVGDRVTITCRASQDISNFLNWYQQKPGQPVKLLIYYTSRLHSGVPSRFSGSGSGTDFTLTISSLQPEDFATYFCQQGHTLPYTFGQGTKLEIKR
For B5, the 50% effective concentration (EC50) in test [1] was 9.9 nM; in test [2] it was 9.9 nM; in test [3], 19.5 nM.

B6: anti-TfR Fab 3M12 VH4/Vk3 (Fab, V domains shown)
VH: QVQLQESGPGLVKPSQTLSLTCTVTGYSITSGYYWNWIRQPPGKGLEWIGYITFDGANNYNPSLKNRVSISRDTSKNQFSLKLSSVTAEDTATYYCTRSSYDYDVLDYWGQGTTVTVSS
VL: DIQMTQSPSSLSASVGDRVTITCRASQDISNFLNWYQQKPGQPVKLLIYYTSRLHSGVPSRFSGSGSGTDFTLTISSLQPEDFATYYCQQGHTLPYTFGQGTKLEIKR
B6 returned a concentration for a half-maximal effect (EC50) in test [3] of 16.4 nM.

B7: conjugate of humanized anti-TfR Fab 3M12 VH4/Vk3 with DMPK-targeting oligonucleotide ASO300 (Fab, V domains shown)
VH: QVQLQESGPGLVKPSQTLSLTCTVTGYSITSGYYWNWIRQPPGKGLEWIGYITFDGANNYNPSLKNRVSISRDTSKNQFSLKLSSVTAEDTATYYCTRSSYDYDVLDYWGQGTTVTVSS
VL: DIQMTQSPSSLSASVGDRVTITCRASQDISNFLNWYQQKPGQPVKLLIYYTSRLHSGVPSRFSGSGSGTDFTLTISSLQPEDFATYYCQQGHTLPYTFGQGTKLEIKR
modifications: ASO300 oligonucleotide attached through a cleavable Val-Cit linker (Formula (C)); residue and chain not stated
notes: also called 3M12 (VH4/Vk3) conjugate; DMPK oligo conjugate
Consider B7, for which the values for the EC50 in test [4] and in test [5] were 2.1 nM and 1.85 nM, respectively.

B8: humanized anti-TfR Fab 3M12 VH3/Vk3 (Fab, V domains shown)
VH: QVQLQESGPGLVKPSQTLSLTCSVTGYSITSGYYWNWIRQPPGKGLEWMGYITFDGANNYNPSLKNRVSISRDTSKNQFSLKLSSVTAEDTATYYCTRSSYDYDVLDYWGQGTTVTVSS
VL: DIQMTQSPSSLSASVGDRVTITCRASQDISNFLNWYQQKPGQPVKLLIYYTSRLHSGVPSRFSGSGSGTDFTLTISSLQPEDFATYYCQQGHTLPYTFGQGTKLEIKR
B8: the figures for the EC50 in test [1], in test [2] and in test [3] were 4.7 nM, 4.7 nM and 15.6 nM, respectively.

B9: humanized anti-TfR Fab 3M12 VH4/Vk2 (Fab, V domains shown)
VH: QVQLQESGPGLVKPSQTLSLTCTVTGYSITSGYYWNWIRQPPGKGLEWIGYITFDGANNYNPSLKNRVSISRDTSKNQFSLKLSSVTAEDTATYYCTRSSYDYDVLDYWGQGTTVTVSS
VL: DIQMTQSPSSLSASVGDRVTITCRASQDISNFLNWYQQKPGQPVKLLIYYTSRLHSGVPSRFSGSGSGTDFTLTISSLQPEDFATYFCQQGHTLPYTFGQGTKLEIKR
Regarding B9, the figures for the EC50 in test [1], in test [2] and in test [3] were 1.4 nM, 1.4 nM and 5.01 nM, respectively.

B10: humanized anti-TfR Fab 3A4 VH3 (N54T)/Vk4 (Fab, V domains shown)
VH: EVQLVQSGSELKKPGASVKVSCTASGFNIKDDYMYWVRQPPGKGLEWIGWIDPETGDTEYASKFQDRVTVTADTSTNTAYMELSSLRSEDTAVYYCTLWLRRGLDYWGQGTLVTVSS
VL: DIVMTQSPLSLPVTPGEPASISCRSSKSLLHSNGYTYLFWFQQRPGQSPRLLIYRMSNLASGVPDRFSGSGSGTDFTLKISRVEAEDVGVYYCMQHLEYPFTFGGGTKVEIKR
In the case of B10, the figures for the EC50 in test [1], in test [2] and in test [3] were 156 nM, 156 nM and 128 nM, respectively.

B11: conjugate of humanized anti-TfR Fab 3A4 VH3/Vk4 with DMPK-targeting oligonucleotide ASO300 (Fab, V domains shown)
VH: EVQLVQSGSELKKPGASVKVSCTASGFNIKDDYMYWVRQPPGKGLEWIGWIDPENGDTEYASKFQDRVTVTADTSTNTAYMELSSLRSEDTAVYYCTLWLRRGLDYWGQGTLVTVSS
VL: DIVMTQSPLSLPVTPGEPASISCRSSKSLLHSNGYTYLFWFQQRPGQSPRLLIYRMSNLASGVPDRFSGSGSGTDFTLKISRVEAEDVGVYYCMQHLEYPFTFGGGTKVEIKR
modifications: ASO300 oligonucleotide attached through a cleavable Val-Cit linker (Formula (C)); residue and chain not stated
notes: also called 3A4 (VH3/Vk4) conjugate; DMPK oligo conjugate
In the case of B11, the concentration for a half-maximal effect (EC50) turned out to be 7.6 nM in test [4] and 7.59 nM in test [5].

B12: humanized anti-TfR Fab 3A4 VH3/Vk4 (Fab, V domains shown)
VH: EVQLVQSGSELKKPGASVKVSCTASGFNIKDDYMYWVRQPPGKGLEWIGWIDPENGDTEYASKFQDRVTVTADTSTNTAYMELSSLRSEDTAVYYCTLWLRRGLDYWGQGTLVTVSS
VL: DIVMTQSPLSLPVTPGEPASISCRSSKSLLHSNGYTYLFWFQQRPGQSPRLLIYRMSNLASGVPDRFSGSGSGTDFTLKISRVEAEDVGVYYCMQHLEYPFTFGGGTKVEIKR
As to B12, the EC50 came out at 122 nM in test [1], 122 nM in test [2] and 878 nM in test [3].

B13: humanized anti-TfR Fab 3A4 VH3 (N54S)/Vk4 (Fab, V domains shown)
VH: EVQLVQSGSELKKPGASVKVSCTASGFNIKDDYMYWVRQPPGKGLEWIGWIDPESGDTEYASKFQDRVTVTADTSTNTAYMELSSLRSEDTAVYYCTLWLRRGLDYWGQGTLVTVSS
VL: DIVMTQSPLSLPVTPGEPASISCRSSKSLLHSNGYTYLFWFQQRPGQSPRLLIYRMSNLASGVPDRFSGSGSGTDFTLKISRVEAEDVGVYYCMQHLEYPFTFGGGTKVEIKR
Turning to B13, the EC50 is 398 nM in test [1], 398 nM in test [2] and 248 nM in test [3].

B14: conjugate of humanized anti-TfR Fab 3A4 VH3 (N54S)/Vk4 with DMPK-targeting oligonucleotide ASO300 (Fab, V domains shown)
VH: EVQLVQSGSELKKPGASVKVSCTASGFNIKDDYMYWVRQPPGKGLEWIGWIDPESGDTEYASKFQDRVTVTADTSTNTAYMELSSLRSEDTAVYYCTLWLRRGLDYWGQGTLVTVSS
VL: DIVMTQSPLSLPVTPGEPASISCRSSKSLLHSNGYTYLFWFQQRPGQSPRLLIYRMSNLASGVPDRFSGSGSGTDFTLKISRVEAEDVGVYYCMQHLEYPFTFGGGTKVEIKR
modifications: ASO300 oligonucleotide attached through a cleavable Val-Cit linker (Formula (C)); residue and chain not stated
notes: also called 3A4 (VH3-N54S/Vk4) conjugate; DMPK oligo conjugate
In the case of B14, the values for the 50% effective concentration (EC50) in test [4] and in test [5] were 7.8 nM and 4.1 nM, respectively.
